B1: Serine/threonine-protein kinase/endoribonuclease IRE1 (Saccharomyces cerevisiae), P32361 (parent)
chain: MRLLRRNMLVLTLLVCVFSSIISCSIPLSSRTSRRQIVEDEVASTKKLNFNYGVDKNINSPIPAPRTTEGLPNMKLSSYPTPNLLNTADNRRANKKGRRAANSISVPYLENRSLNELSLSDILIAADVEGGLHAVDRRNGHIIWSIEPENFQPLIEIQEPSRLETYETLIIEPFGDGNIYYFNAHQGLQKLPLSIRQLVSTSPLHLKTNIVVNDSGKIVEDEKVYTGSMRTIMYTINMLNGEIISAFGPGSKNGYFGSQSVDCSPEEKIKLQECENMIVIGKTIFELGIHSYDGASYNVTYSTWQQNVLDVPLALQNTFSKDGMCIAPFRDKSLLASDLDFRIARWVSPTFPGIIVGLFDVFNDLRTNENILVPHPFNPGDHESISSNKVYLDQTSNLSWFALSSQNFPSLVESAPISRYASSDRWRVSSIFEDETLFKNAIMGVHQIYNNEYDHLYENYEKTNSLDTTHKYPPLMIDSSVDTTDLHQNNEMNSLKEYMSPEDLEAYRKKIHEQISRELDEKNQNSLLLKFGSLVYRIIETGVFLLLFLIFCAILQRFKILPPLYVLLSKIGFMPEKEIPIVESKSLNCPSSSENVTKPFDMKSGKQVVFEGAVNDGSLKSEKDNDDADEDDEKSLDLTTEKKKRKRGSRGGKKGRKSRIANIPNFEQSLKNLVVSEKILGYGSSGTVVFQGSFQGRPVAVKRMLIDFCDIALMEIKLLTESDDHPNVIRYYCSETTDRFLYIALELCNLNLQDLVESKNVSDENLKLQKEYNPISLLRQIASGVAHLHSLKIIHRDLKPQNILVSTSSRFTADQQTGAENLRILISDFGLCKKLDSGQSSFRTNLNNPSGTSGWRAPELLEESNNLQCQVETEHSSSRHTVVSSDSFYDPFTKRRLTRSIDIFSMGCVFYYILSKGKHPFGDKYSRESNIIRGIFSLDEMKCLHDRSLIAEATDLISQMIDHDPLKRPTAMKVLRHPLFWPKSKKLEFLLKVSDRLEIENRDPPSALLMKFDAGSDFVIPSGDWTVKFDKTFMDNLERYRKYHSSKLMDLLRALRNKYHHFMDLPEDIAELMGPVPDGFYDYFTKRFPNLLIGVYMIVKENLSDDQILREFLYS
partner: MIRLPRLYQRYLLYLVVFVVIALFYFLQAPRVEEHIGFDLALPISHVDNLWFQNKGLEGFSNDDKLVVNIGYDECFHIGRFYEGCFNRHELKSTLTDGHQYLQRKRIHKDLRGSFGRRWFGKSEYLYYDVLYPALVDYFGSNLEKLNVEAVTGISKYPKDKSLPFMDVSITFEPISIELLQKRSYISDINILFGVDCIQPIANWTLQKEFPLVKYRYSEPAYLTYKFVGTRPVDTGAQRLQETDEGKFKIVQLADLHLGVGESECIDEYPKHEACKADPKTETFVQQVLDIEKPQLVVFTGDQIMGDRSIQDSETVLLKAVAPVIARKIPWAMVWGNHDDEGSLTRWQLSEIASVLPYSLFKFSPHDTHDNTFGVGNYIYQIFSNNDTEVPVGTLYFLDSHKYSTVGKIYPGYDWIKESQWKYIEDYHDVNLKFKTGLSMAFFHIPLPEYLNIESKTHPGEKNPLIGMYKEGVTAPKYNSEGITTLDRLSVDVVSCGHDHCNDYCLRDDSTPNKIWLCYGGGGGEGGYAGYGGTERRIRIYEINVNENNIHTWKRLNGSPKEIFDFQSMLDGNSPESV

Variants of: B1
Details: with dcr2_yeast DCR2, Q05924

effect of a mutation on the interaction | Variant
increasing interaction | S840A
increasing interaction | S841A
